Among the data in patent US20230151082A1 are relative peak shift value and EC50 values, retold here.

By EC50 is commonly meant the concentration that produces a half-maximal response.

The target of assay [1] is mesothelin present on the cell membrane of mesothelin-expressing cancer cell lines (AsPC-1; OVCAR-3; NCI-H2052) (human) (UniProt Q13421). In words: flow cytometry, phage clone on AsPC-1 cells against control K562 cells.
Assay [2] shares this target. The experiment in a line: flow cytometry, phage clone on AsPC-1 cells, anti-M13-FITC. For orientation: A flow cytometer gives signals particle by particle.
Assay [3] has as its target human mesothelin protein (MSLN, Acro Biosystems), conjugated to a histidine tag (human) (UniProt Q13421). The experiment in a line: ELISA, purified scFv on coated human mesothelin protein (1 ug/mL), anti-StrepMAB HRP.

B1: MSLN37 phage clone (scFv displayed on phage, KBIO human synthetic scFv phage display library KscFv-I) (scFv, V domains shown)
VH: EVQLVESGGGLVQPGGSLRLSCAASGFTFSSYAMHWVRQAPGKGLEWVSGISGSGGTTYYADSVKGRFTISRDNSKNTLYLQMNSLRAEDTAVYYCAKEVEGQSQEYFDIWGQGTLVTVSS
VL: DIQMTQSPSSLSASVGDRVTITCRASQSIANYLNWYQQKPGKAPKLLIYAASNLQSGVPSRFSGSGSGTDFTLTISSLQPEDFATYYCQQSYSFPYTFGQGTKVEIK
As to B1, the relative peak shift value in assay [1] was 5.9%; in assay [2] it was over 5%.

B2: MSLN34 phage clone (scFv displayed on phage, KBIO human synthetic scFv phage display library KscFv-I) (scFv, not shown: large carriers; small tags and cut ends)
scFv: EVQLVESGGGLVQPGGSLRLSCAASGFTFSDYGMHWVRQAPGKGLEWVSSIYGSGGHTGYADSVKGRFTISRDNSKNTLYLQMNSLRAEDTAVYYCAKQHAYRYSYAFDVWGQGTLVTVSSGGGGSGGGGSGGGGSDIQMTQSPSSLSASVGDRVTITCRASQSISNWLNWYQQKPGKAPKLLIYATSSLQSGVPSRFSGSGSGTDFTLTISSLQPEDFATYYCQQSYSFPFTFGQGTKVEIK
modifications: displayed on M13 phage
As for B2, the relative peak shift value in assay [1] is 16.2%; in assay [2], over 5%.

B3: anti-MSLN-scFv antibody MSLN34 (purified scFv from E. coli periplasm) (scFv, not shown: small tags and cut ends)
scFv: B2 scFv
B3 returned an EC50 in assay [3] of 83 nM.
